Six molecules from patent US20250325630A1, “HOMODIMER FUSION PROTEINS FOR TREATING ATOPIC DERMATITIS” (Intervet Inc., priority 2021, published 2025) can be followed below.

Changes are numbered by the printed parent chain.

One experiment deals with canine IL-31Rα. Briefly: ELISA binding of chimeric and caninized antibodies to canine IL-31Rα. Particulars: FIG. 1-3, in words. On the procedure: The nucleotide and deduced amino acid sequence of the HC and LC of selected rat antibodies reactive with canine IL-31Rα was determined. The amino acid sequences representing the 3 HC CDRs and 3 LC CDRs for each antibody also were determined. These CDRs were used to develop caninized antibodies that bind canine IL-31Rα ECD. The binding of caninized antibodies to IL-31Rα was determined by ELISA as follows:
• 1. Anti-Dog IgG (cFc specific)-Peroxidase (Sigma-Aldrich SAB3700109-1.5 MG) • 2. TMB-ELISA Substrate (Thermo-Fisher Cat #34028) • 3. PBS pH7.4 (Thermo-Fisher Cat #10010001) • 4. Tris Buffered Saline with Tween 20 (TBST) (Sigma-Aldrich T9039-10PAK)
• 1. Coat immunoplates by cIL-31Rα in PBS buffer at 1 μg/mL, 100 μL/well. Incubate the plates at 37° C. for 1-2 hrs or 4° C. overnight. • 2. Wash the plates 3 times by TBST buffer. • 3. Block the plates by blocking buffer (0.5% BSA in TBST) for 45-60 minutes at room temperature. • 4. Three-fold dilute anti-cIL31-Ra antibodies with blocking buffer in dilution plates and transfer the diluted antibodies into the cIL-31Rα coated plates, incubate 45-60 minutes at room temperature. • 5. Wash the plates 3 times by TBST. • 6. Add 1:2000 diluted HRP conjugated anti-dog IgG Fc into the plates, incubate 45-60 minutes at room temperature. • 7. Wash the plates 3 times by TBST. • 8. […] Read the plates by plate reader at […].

Experiment [1] addresses T1, canine IL-4 (canine, UniProt O77762 25-132, biotin-labeled in the Octet assay (site not stated)).
T1 sequence (looked up): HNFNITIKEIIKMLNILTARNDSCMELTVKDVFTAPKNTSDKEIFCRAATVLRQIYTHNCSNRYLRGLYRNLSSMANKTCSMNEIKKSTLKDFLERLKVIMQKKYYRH
Briefly: cell-based or functional assay.

The target of experiment [2] is T1, canine IL-4. As to the kind of experiment: cell-based or functional assay. The source holds these as a separate data set.
The target in experiment [3] is T1, canine IL-4. Briefly: BLI (Octet); summary table, rounded from Table 3.
The target in experiment [4] is T1, canine IL-4. As to the kind of experiment: BLI (Octet HTX), biotin-cIL-4 on SA biosensors, fusion protein in solution, 1:1 fit. The procedure:
(§1) The binding constants for the cFc fusion proteins provided in Tables 3 and 4 below, were determined using OCTET® HTX. All kinetics measurements were performed by OCTET® HTX using SA® biosensors and DATA ACQUISITION® 12.0 software. 10 μg/mL of biotin-labeled antigen, either canine IL-4 (cIL-4) or canine IL-13 (cIL-13) were loaded onto the SAR biosensors for 120 seconds. Next, the biosensors were placed into 1×pH 7.0 TBS/Casein buffer for 60 seconds for the blocking phase. For the association phase, antigen loaded biosensors were placed into 2-fold serial dilutions from 1 μM down to 15.6 nM of the wild-type, the bispecific, or the FcRn-mutant receptor Fc-fusions that recognized the cIL-4 or cIL-13 antigen in 1×pH 7.0 TBS/Casein buffer for 30 seconds. The last well was buffer alone and that sensor was used for reference sensor subtraction. Finally, the biosensors were placed into 1×pH 7.0 TBS/Casein buffer for 120 seconds for the dissociation phase. The results were then analyzed using Data Analysis 12.0 software and the curves were fitted using a 1:1 binding model.

Experiment [5] deals with T1, canine IL-4. As to the kind of experiment: BLI (Octet). The procedure: as §1
Experiment [6] deals with T2, canine IL-13 (canine, UniProt Q9N0W9 19-131, limits assumed, biotin-labeled in the Octet assay (site not stated)).
T2 construct: Biotin-labeled and loaded on SA biosensors for the kinetics; unlabeled in the DH82 cell assay; also called cIL-13; canine Interleukin-13
T2 sequence (looked up): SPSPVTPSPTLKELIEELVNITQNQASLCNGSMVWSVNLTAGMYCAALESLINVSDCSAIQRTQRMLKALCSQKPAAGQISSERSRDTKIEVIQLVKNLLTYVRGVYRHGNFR
Briefly: BLI (Octet). On the procedure:
as §1

In experiment [7] the target is T2, canine IL-13. Briefly: cell-based or functional assay.
Experiment [8] addresses T2, canine IL-13. Briefly: cell-based or functional assay. This is another data set of the same source.
Experiment [9] addresses T2, canine IL-13. Briefly: cell-based or functional assay. The source holds these as a separate data set.
Experiment [10] concerns the target T2, canine IL-13. Briefly: BLI (Octet); summary table, rounded from Table 4.
The target in experiment [11] is T2, canine IL-13. As to the kind of experiment: BLI (Octet HTX), biotin-cIL-13 on SA biosensors, fusion protein in solution, 1:1 fit. The procedure:
as §1

B1: c44E2 H5k1: caninized rat 44E2 anti-canine IL-31Rα antibody; likely c44E2VH5-cIgGBm (SEQ ID NO: 43) with c44E2VL1-cCk (SEQ ID NO: 45) (antibody)
heavy: ELTLQESGPGLVKPSQTLSLTCTVSGFSLTSNGVSWIRQRPGRGLEWMGAISSGGSTYYNSVLKSRISITADTAKNQFSLQLSSMTTEDTAVYYCARRLSGYNYVPFAYWGQGTLVTVSSASTTAPSVFPLAPSCGSTSGSTVALACLVSGYFPEPVTVSWNSGSLTSGVHTFPSVLQSSGLYSLSSMVTVPSSRWPSETFTCNVAHPASKTKVDKPVPKRENGRVPRPPDCPKCPAPEMLGGPSVFIFPPKPKDTLLIARTPEVTCVVVALDPEDPEVQISWFVDGKQMQTAKTQPREEQFAGTYRVVSVLPIGHQDWLKGKQFTCKVNNKALPSPIERTISKARGQAHQPSVYVLPPSREELSKNTVSLTCLIKDFFPPDIDVEWQSNGQQEPESKYRTTPPQLDEDGSYFLYSKLSVDKSRWQRGDTFICAVMHEALHNHYTQESLSHSPGK
light: EIVMTQSPASLSLSQEEKVTITCKASQNIYKHLAWYQQKPGQAPKLLIYNANSLQTGVPSRFSGSGSGTDFSFTISSLEPEDVAVYYCQQYYSGDTFGAGTKVELKRNDAQPAVYLFQPSPDQLHTGSASVVCLLNSFYPKDINVKWKVDGVIQDTGIQESVTEQDKDSTYSLSSTLTMSSTEYLSHELYSCEITHKSLPSTLIKSFQRSECQRVD
As to B1, the “EC50 of binding to canine IL-31Rα compared with the corresponding chimeric antibody” value at canine IL-31Rα was “most similar to the EC50 of the corresponding chimeric 44E2 antibody”.

B2: cIL-4Rα-cIgGB-Fc (Fc fusion)
chain: VKVLHEPSCFSDYISTSVCQWKMDHPTNCSAELRLSYQLDFMGSENHTCVPENREDSVCVCSMPIDDAVEADVYQLDLWAGQQLLWSGSFQPSKHVKPRTPGNLTVHPNISHTWLLMWTNPYPTENHLHSELTYMVNVSNDNDPEDFKVYNVTYMGPTLRLAASTLKSGASYSARVRAWAQTYNSTWSDWSPSTTWLNYYEPWEQHLPPKRENGRVPRPPDCPKCPAPEMLGGPSVFIFPPKPKDTLLIARTPEVTCVVVDLDPEDPEVQISWFVDGKQMQTAKTQPREEQFNGTYRVVSVLPIGHQDWLKGKQFTCKVNNKALPSPIERTISKARGQAHQPSVYVLPPSREELSKNTVSLTCLIKDFFPPDIDVEWQSNGQQEPESKYRTTPPQLDEDGSYFLYSKLSVDKSRWQRGDTFICAVMHEALHNHYTQESLSHSPGK
notes: Homodimer held by hinge disulfides; made in CHO cells, purified on protein A; also called cIL-4Rα-cFc; cIL4Rα-cFc
Take B2: the “IL-4 IC50 (inhibition of cIL-4 mediated STAT6 phosphorylation in DH82 cells)” value with canine IL-4 [1] was 0.084 nM. Further, the “IL-4 (IC50), summary table” value in the experiment with canine IL-4 [2] was 0.08 nM. In addition, in the experiment with canine IL-4 [3], the Kd was 0.001 nM. Besides, in the experiment with canine IL-4 [4], the Kd turned out to be 0.00118 nM, the koff was determined as 8.3e-07 s⁻¹ and the on-rate constant (kon) came out at 703000 M⁻¹ s⁻¹.

B3: cIL-4Rα-13Rα1_ZW1-cFc (Fc fusion)
chain 1: B2 chain with L347Y, F403A, Y405V
chain 2: GGVAAPTETQPPVTNLSVSVENLCTVIWTWDPPEGASPNCTLRYFSHFDNKQDKKIAPETHRSKEVPLNERICLQVGSQCSTNESDNPSILVEKCTPPPEGDPESAVTELQCVWHNLSYMKCTWLPGRNTSPDTNYTLYYWHSSLGKILQCEDIYREGQHIGCSFALTNLKDSSFEQHSVQIVVKDNAGKIRPSFNIVPLTSHVKPDPPHIKRLFFQNGNLYVQWKNPQNFYSRCLSYQVEVNNSQTETNDIFYVEEAKCQNSEFEGNLEGTICFMVPGVLPDTLNTVRIRVRTNKLCYEDDKLWSNWSQAMSIGENTDPTPKRENGRVPRPPDCPKCPAPEMLGGPSVFIFPPKPKDTLLIARTPEVTCVVVDLDPEDPEVQISWFVDGKQMQTAKTQPREEQFNGTYRVVSVLPIGHQDWLKGKQFTCKVNNKALPSPIERTISKARGQAHQPSVYVLPPSREELSKNTVSLLCLIKDFFPPDIDVEWQSNGQQEPESKYLTWPPQLDEDGSYFLYSKLSVDKSRWQRGDTFICAVMHEALHNHYTQESLSHSPGK
notes: also called cIL4Rα-IL13Rα1_ZW1-cFc; cIL-4Rα-IL-13Rα1_ZW1-cFc
With B3, the “fold change of KD against the unmodified cIL-4Rα-cFc homodimer” value (“fold change of KD” below) in the experiment with canine IL-4 [5] was around 10000 fold. For the same molecule, the “fold tighter binding than the unmodified IL-13Rα1-cFc” value with canine IL-13 [6] stood at 8 fold. For the same molecule, in the experiment with canine IL-13 [7], the “fold change of the concentration that inhibits 50% of the cIL-13 mediated STAT6 phosphorylation in DH82 cells, against cIL-13Rα1-cFc” value was 6 fold lower and the “fold change of the concentration that inhibits 50% of the cIL-13 mediated STAT6 phosphorylation in DH82 cells, against cIL-13Rα2-cFc” value was around 20 fold higher. The “IL-4 IC50 (inhibition of cIL-4 mediated STAT6 phosphorylation in DH82 cells)” value with canine IL-4 [1] is 0.046 nM. Also, in the experiment with canine IL-13 [8], the “IL-13 IC50 (inhibition of cIL-13 mediated STAT6 phosphorylation in DH82 cells)” value worked out at 3.02 nM. Besides, the “IL-4 (IC50), summary table” value in the experiment with canine IL-4 [2] was 0.05 nM. Moreover, the “IL-13 (IC50), summary table” value in the experiment with canine IL-13 [9] came to 3 nM. Besides, the dissociation constant Kd with canine IL-4 [3] was determined as 10 nM. The molecule also yielded a Kd with canine IL-13 [10] of 0.4 nM. In the experiment with canine IL-4 [4], this molecule came in with a Kd of 9.85 nM, a koff of 0.00234 s⁻¹ and a kon of 237000 M⁻¹ s⁻¹. In the experiment with canine IL-13 [11], this molecule showed a Kd of 0.415 nM, a koff of 3.91e-05 s⁻¹ and an on-rate constant (kon) of 94400 M⁻¹ s⁻¹.

B4: cIL-4Rα-cIgGB-Fc-YTE (Fc fusion)
chain: B2 chain with L248Y, A250T, T252E
notes: Homodimer; also called cIL-4Rα-cFc-YTE
In the case of B4, the “fold change of KD” value with canine IL-4 [5] was around 10 fold. In addition, in the experiment with canine IL-4 [4], the Kd was 0.0111 nM, the koff was 9.23e-06 s⁻¹ and the kon is 830000 M⁻¹ s⁻¹.

B5: cIL-4Rα-cIgGB-Fc-H (Fc fusion)
chain: B2 chain with N432H
notes: Homodimer; also called cIL-4Rα-cFc-H; cIL-4Rα-cFc-NH
With B5, in the experiment with canine IL-4 [5], the “fold change of KD” value is around 100 fold. For the same molecule, in the experiment with canine IL-4 [4], the Kd was 0.126 nM, the koff was found to be 9.88e-05 s⁻¹ and the kon was found to be 785000 M⁻¹ s⁻¹.

B6: cIL-13Rα2-cIgGB-Fc-YTE (Fc fusion)
chain: SMLSNAEIKVNPPQDFEIVDPGYLGYLSLQWQPPLFPDNFKECTIEYELKYRNIDSENWKTIITKNLHYKDGFDLNKGIEAKINTLLPAQCTNGSEVRSSWAETTYWTSPQGNRETKIQDMDCVYYNWQYLVCSWKPGMGVHFDTNYQLFYWYEGLDHSAECTDYIKVNGKNMGCRFPYLESSDYKDFYICVNGSSESQPIRPSYFIFQLQNIVKPMPPDYLSLTVKNSEEINLKWNMPKGPIPAKCFIYEIEFTEDGTTWVTTTVENEIQITRTSNESQKLCFLVRSKVNIYCSDDGIWSEWSDEQCWKGDIWKETPKRENGRVPRPPDCPKCPAPEMLGGPSVFIFPPKPKDTLYITREPEVTCVVVDLDPEDPEVQISWFVDGKQMQTAKTQPREEQFNGTYRVVSVLPIGHQDWLKGKQFTCKVNNKALPSPIERTISKARGQAHQPSVYVLPPSREELSKNTVSLTCLIKDFFPPDIDVEWQSNGQQEPESKYRTTPPQLDEDGSYFLYSKLSVDKSRWQRGDTFICAVMHEALHNHYTQESLSHSPGK
notes: Homodimer; also called cIL-13Rα2-cFc-YTE
On to B6, for which the “fold decrease of KD against unmodified cIL-13Rα2-cFc” value with canine IL-13 [6] is around 2 fold. In the experiment with canine IL-13 [11], this molecule displayed a Kd of 0.000432 nM, a koff of 5.04e-07 s⁻¹ and a kon of 1.17e+06 M⁻¹ s⁻¹.
